The target in test [1] is T1, HLA-A02:01 (Homo sapiens, UniProt P04439, D140Y/D185E/D98H/E176V/E277Q/G131W/G231S/I119V/I121R/I166T/I218V/L300P/L318F/N151K/N90K/P208A/P217A/Q86G/Q94H/R138H/R169H/T345S). Put plainly: Affinity of neoepitopes for the indicated HLA allele. It is filed as binding. The conditions noted are these: HLA allele A02.01; mutant KRAS peptides (Example 9). The method, then:
(§1) Multiple peptides containing the neoepitopes in the table below were expressed or loaded onto antigen presenting cells (APCs). Mass spectrometry was then performed and the affinity of the neoepitopes for the indicated HLA alleles and stability of the neoepitopes with the HLA alleles was determined.

Test [2] concerns the target T1, HLA-A02:01. Put plainly: Stability of neoepitopes with the HLA allele. It is filed as binding. The conditions noted are these: HLA allele A02.01; mutant KRAS peptides (Example 9). The method, then: as §1
The test system of test [3] is ovarian carcinoma patients. The settings on record: poly-ICLC in combination with a NYESO-1 peptide vaccine (in addition to Montanide); phase 1 study; cited from earlier work.
The subject of a further test is humans. The settings on record: cited from earlier work.

With LVVVGACGV, the “Measured Affinity” value in the test with HLA-A02:01 [1] is given as 667.1 nM. In the test with HLA-A02:01 [2], the “Measured stability” value amounted to 0.6 h.

Regarding LVVVGADGV, the “Measured Affinity” value with HLA-A02:01 [1] amounted to 977.4 nM. Further, in the test with HLA-A02:01 [2], the “Measured stability” value was found to be 0.0 h.

Turning to LVVVGAVGV, the “Measured Affinity” value in the test with HLA-A02:01 [1] is 682.5 nM. Besides, the “Measured stability” value with HLA-A02:01 [2] is 0.6 h.

As for poly-ICLC, the “Patients showing induction of CD4+ and CD8+ T cell, as well as antibody responses to the peptide” value in test [3] was more than 90%. Besides, the “CD4+ and CD8+ responses in humans” value with humans is “can induce durable CD4^+ and CD8^+ responses”.

The values above are taken from patent US12246067B2, “Neoantigens and uses thereof” (priority 2018, dated 2025).
